{"source": "paper PMC9482650", "about": "“Quantitative fragmentomics allow affinity mapping of interactomes” (Nature Communications, 2022)", "experiment_in_all_cases": "holdup assay", "design_in_all_cases": "key: below the threshold = too weak to quantify, mostly under pKd 3.1 to 4", "settings_in_all_cases": "plain residues with an end cap or a label only (N-terminal biotin on a linker: ado-ado)", "key": {"[1]": {"molecular_target": "AHNAK1, Q09666"}, "[2]": {"molecular_target": "T1, GRIP1_4, Q9Y3R0", "T1 sequence (Q9Y3R0 467-571, limits assumed, looked up)": "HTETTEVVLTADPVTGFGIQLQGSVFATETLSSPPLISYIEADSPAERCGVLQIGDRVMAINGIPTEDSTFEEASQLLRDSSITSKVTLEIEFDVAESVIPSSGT"}, "[3]": {"molecular_target": "MAGI2_4, Q86UL8", "sequence (Q86UL8 772-865)": "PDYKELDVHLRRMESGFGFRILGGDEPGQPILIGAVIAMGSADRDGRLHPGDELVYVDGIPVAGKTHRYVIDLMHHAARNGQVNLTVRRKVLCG"}, "[4]": {"molecular_target": "LAP2, Q96RT1", "sequence (Q96RT1 other isoform, or with tags, fused parts or gaps)": "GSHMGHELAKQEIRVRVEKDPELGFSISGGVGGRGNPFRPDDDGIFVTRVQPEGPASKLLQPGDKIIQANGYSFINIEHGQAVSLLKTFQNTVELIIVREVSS"}, "[5]": {"molecular_target": "T2, NHERF3_4, Q5T2W1", "T2 sequence (Q5T2W1 373-468, limits assumed, looked up)": "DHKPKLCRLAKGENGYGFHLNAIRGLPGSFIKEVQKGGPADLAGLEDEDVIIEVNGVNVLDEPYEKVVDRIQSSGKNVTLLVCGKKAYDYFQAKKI"}, "[6]": {"molecular_target": "DLG1_3, Q12959", "sequence (Q12959 457-571)": "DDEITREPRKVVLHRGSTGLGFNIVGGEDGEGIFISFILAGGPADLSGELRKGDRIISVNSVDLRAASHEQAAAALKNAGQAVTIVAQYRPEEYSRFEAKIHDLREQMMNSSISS"}, "[7]": {"molecular_target": "SNX27, Q96L92"}, "[8]": {"molecular_target": "T3, APBA3_1, O96018", "T3 sequence (O96018 389-490, limits assumed, looked up)": "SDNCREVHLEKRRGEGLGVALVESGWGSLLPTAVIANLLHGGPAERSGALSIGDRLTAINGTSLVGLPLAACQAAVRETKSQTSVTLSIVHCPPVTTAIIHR"}, "[9]": {"molecular_target": "TJP1_3, Q07157", "sequence (Q07157 416-512)": "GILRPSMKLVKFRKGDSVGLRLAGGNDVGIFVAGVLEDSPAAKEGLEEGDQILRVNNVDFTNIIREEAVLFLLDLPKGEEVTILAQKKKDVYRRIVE"}, "[10]": {"molecular_target": "T4, LNX2_3, Q8N448", "T4 sequence (Q8N448 463-564, limits assumed, looked up)": "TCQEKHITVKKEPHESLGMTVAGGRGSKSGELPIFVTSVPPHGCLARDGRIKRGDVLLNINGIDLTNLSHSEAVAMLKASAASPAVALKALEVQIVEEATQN"}, "[11]": {"molecular_target": "T5, SNTG2, Q9NY99", "T5 sequence (Q9NY99 68-166, limits assumed, looked up)": "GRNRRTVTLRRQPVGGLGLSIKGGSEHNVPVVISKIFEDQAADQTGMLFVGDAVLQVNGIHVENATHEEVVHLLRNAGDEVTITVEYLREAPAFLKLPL"}, "[12]": {"molecular_target": "T6, LIN7C, Q9NUP9", "T6 sequence (Q9NUP9 88-185, limits assumed, looked up)": "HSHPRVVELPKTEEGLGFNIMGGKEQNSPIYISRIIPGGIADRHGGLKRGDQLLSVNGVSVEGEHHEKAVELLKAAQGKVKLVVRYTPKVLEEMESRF"}, "[13]": {"molecular_target": "T7, PDZRN3_1, Q9UPQ7", "T7 sequence (Q9UPQ7 244-349, limits assumed, looked up)": "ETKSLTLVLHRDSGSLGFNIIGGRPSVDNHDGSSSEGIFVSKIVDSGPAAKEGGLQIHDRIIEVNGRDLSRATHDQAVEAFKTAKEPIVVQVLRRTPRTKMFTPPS"}, "[14]": {"molecular_target": "T8, TIAM2, Q8IVF5", "T8 sequence (Q8IVF5 885-986, limits assumed, looked up)": "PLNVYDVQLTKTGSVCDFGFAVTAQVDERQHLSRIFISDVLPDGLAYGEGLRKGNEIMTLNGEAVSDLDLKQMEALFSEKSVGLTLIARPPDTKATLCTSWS"}, "[15]": {"molecular_target": "T9, PDZD2_2, O15018", "T9 sequence (O15018 329-429, limits assumed, looked up)": "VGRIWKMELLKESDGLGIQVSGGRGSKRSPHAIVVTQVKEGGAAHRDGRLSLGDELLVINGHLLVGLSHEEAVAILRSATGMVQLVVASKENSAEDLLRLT"}, "[16]": {"molecular_target": "LNX1_2, Q8TBB1", "sequence (Q8TBB1 371-470)": "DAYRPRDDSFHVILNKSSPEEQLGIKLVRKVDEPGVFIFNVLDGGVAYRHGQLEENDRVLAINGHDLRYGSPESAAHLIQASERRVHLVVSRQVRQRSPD"}, "[17]": {"molecular_target": "T10, HTRA4, P83105", "T10 sequence (P83105 378-476, limits assumed, looked up)": "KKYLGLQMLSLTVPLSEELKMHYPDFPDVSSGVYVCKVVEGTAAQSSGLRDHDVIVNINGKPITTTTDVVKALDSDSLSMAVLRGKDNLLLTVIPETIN"}, "[18]": {"molecular_target": "Inadl_3, Q8NI35", "sequence (Q8NI35 359-469)": "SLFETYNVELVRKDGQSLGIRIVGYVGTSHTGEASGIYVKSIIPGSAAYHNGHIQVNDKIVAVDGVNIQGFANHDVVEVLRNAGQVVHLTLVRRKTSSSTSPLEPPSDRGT"}, "[19]": {"molecular_target": "DLG2_2, Q15700", "sequence (Q15700 189-283)": "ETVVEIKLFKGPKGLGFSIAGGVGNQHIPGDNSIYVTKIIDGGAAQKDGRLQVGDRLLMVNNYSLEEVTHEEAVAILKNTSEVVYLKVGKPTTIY"}, "[20]": {"molecular_target": "Inadl_6, Q8NI35", "sequence (Q8NI35 1058-1167)": "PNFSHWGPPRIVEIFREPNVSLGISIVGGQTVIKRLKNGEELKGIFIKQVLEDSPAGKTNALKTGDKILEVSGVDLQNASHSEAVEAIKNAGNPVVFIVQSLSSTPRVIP"}, "[21]": {"molecular_target": "SCRIB_2, Q14160", "sequence (Q14160 857-960)": "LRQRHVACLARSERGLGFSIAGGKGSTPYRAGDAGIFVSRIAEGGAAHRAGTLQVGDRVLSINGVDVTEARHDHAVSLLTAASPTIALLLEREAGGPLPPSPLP"}, "[22]": {"molecular_target": "T11, ARHGEF11, O15085", "T11 sequence (O15085 42-136, limits assumed, looked up)": "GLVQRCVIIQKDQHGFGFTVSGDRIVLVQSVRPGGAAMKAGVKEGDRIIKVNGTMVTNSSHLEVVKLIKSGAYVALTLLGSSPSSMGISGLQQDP"}, "[23]": {"molecular_target": "FRMPD2_2, Q68DX3", "sequence (Q68DX3 944-1038)": "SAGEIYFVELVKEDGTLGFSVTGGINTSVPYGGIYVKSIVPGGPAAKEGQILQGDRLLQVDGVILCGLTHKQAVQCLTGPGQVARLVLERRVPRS"}, "[24]": {"molecular_target": "IL16_4, Q14005", "sequence (Q14005 1229-1329)": "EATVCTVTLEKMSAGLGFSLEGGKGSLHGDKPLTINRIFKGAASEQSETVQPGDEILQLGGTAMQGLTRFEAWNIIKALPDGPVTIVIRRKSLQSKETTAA"}, "[25]": {"molecular_target": "LNX1_3, Q8TBB1", "sequence (Q8TBB1 500-596)": "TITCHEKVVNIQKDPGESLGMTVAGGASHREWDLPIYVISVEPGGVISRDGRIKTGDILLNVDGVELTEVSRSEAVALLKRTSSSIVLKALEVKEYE"}, "[26]": {"molecular_target": "T12, SNTB1, Q13884", "T12 sequence (Q13884 107-205, limits assumed, looked up)": "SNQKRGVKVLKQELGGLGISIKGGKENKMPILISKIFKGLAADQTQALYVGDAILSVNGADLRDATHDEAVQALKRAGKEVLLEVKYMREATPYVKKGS"}}, "data": [{"binder": "PAALPESTHM", "note": "[SLC9A3, P48764]", "values": [{"measurement": "pKd", "setting": "[1]", "value": "below the threshold"}, {"measurement": "pKd", "setting": "[2]", "value": "below the threshold"}, {"measurement": "pKd", "setting": "[3]", "value": "below the threshold"}, {"measurement": "pKd", "setting": "[4]", "value": "below the threshold"}, {"measurement": "pKd", "setting": "[5]", "value": 3.52}, {"measurement": "pKd", "setting": "[6]", "value": "below the threshold"}, {"measurement": "pKd", "setting": "[7]", "value": "below the threshold"}, {"measurement": "pKd", "setting": "[8]", "value": "below the threshold"}, {"measurement": "pKd", "setting": "[9]", "value": "below the threshold"}, {"measurement": "pKd", "setting": "[10]", "value": "below the threshold"}, {"measurement": "pKd", "setting": "[11]", "value": "below the threshold"}, {"measurement": "pKd", "setting": "[12]", "value": "below the threshold"}, {"measurement": "pKd", "setting": "[13]", "value": "below the threshold"}, {"measurement": "pKd", "setting": "[14]", "value": "below the threshold"}, {"measurement": "pKd", "setting": "[15]", "value": "below the threshold"}, {"measurement": "pKd", "setting": "[16]", "value": "below the threshold"}, {"measurement": "pKd", "setting": "[17]", "value": 3.9}, {"measurement": "pKd", "setting": "[18]", "value": "below the threshold"}, {"measurement": "pKd", "setting": "[19]", "value": "below the threshold"}, {"measurement": "pKd", "setting": "[20]", "value": "below the threshold"}, {"measurement": "pKd", "setting": "[21]", "value": "below the threshold"}, {"measurement": "pKd", "setting": "[22]", "value": "below the threshold"}, {"measurement": "pKd", "setting": "[23]", "value": "below the threshold"}, {"measurement": "pKd", "setting": "[24]", "value": "below the threshold"}, {"measurement": "pKd", "setting": "[25]", "value": "below the threshold"}, {"measurement": "pKd", "setting": "[26]", "value": "below the threshold"}]}, {"binder": "NTALVESEDL", "note": "[PALLS, Q8WX93;Q8WX93-1]", "values": [{"measurement": "pKd", "setting": "[1]", "value": "below the threshold"}, {"measurement": "pKd", "setting": "[2]", "value": "below the threshold"}, {"measurement": "pKd", "setting": "[4]", "value": "below the threshold"}, {"measurement": "pKd", "setting": "[5]", "value": "below the threshold"}, {"measurement": "pKd", "setting": "[6]", "value": "below the threshold"}, {"measurement": "pKd", "setting": "[7]", "value": 4.38}, {"measurement": "pKd", "setting": "[8]", "value": "below the threshold"}, {"measurement": "pKd", "setting": "[9]", "value": "below the threshold"}, {"measurement": "pKd", "setting": "[10]", "value": "below the threshold"}, {"measurement": "pKd", "setting": "[11]", "value": "below the threshold"}, {"measurement": "pKd", "setting": "[12]", "value": "below the threshold"}, {"measurement": "pKd", "setting": "[13]", "value": "below the threshold"}, {"measurement": "pKd", "setting": "[14]", "value": "below the threshold"}, {"measurement": "pKd", "setting": "[15]", "value": "below the threshold"}, {"measurement": "pKd", "setting": "[16]", "value": "below the threshold"}, {"measurement": "pKd", "setting": "[17]", "value": "below the threshold"}, {"measurement": "pKd", "setting": "[18]", "value": "below the threshold"}, {"measurement": "pKd", "setting": "[19]", "value": "below the threshold"}, {"measurement": "pKd", "setting": "[20]", "value": "below the threshold"}, {"measurement": "pKd", "setting": "[21]", "value": "below the threshold"}, {"measurement": "pKd", "setting": "[22]", "value": 4.05}, {"measurement": "pKd", "setting": "[23]", "value": "below the threshold"}, {"measurement": "pKd", "setting": "[25]", "value": "below the threshold"}, {"measurement": "pKd", "setting": "[26]", "value": "below the threshold"}]}, {"binder": "SKQFDKNAYV", "note": "[CLDN10, P78369]", "values": [{"measurement": "pKd", "setting": "[1]", "value": "below the threshold"}, {"measurement": "pKd", "setting": "[2]", "value": "below the threshold"}, {"measurement": "pKd", "setting": "[3]", "value": "below the threshold"}, {"measurement": "pKd", "setting": "[4]", "value": "below the threshold"}, {"measurement": "pKd", "setting": "[5]", "value": "below the threshold"}, {"measurement": "pKd", "setting": "[6]", "value": "below the threshold"}, {"measurement": "pKd", "setting": "[7]", "value": 3.78}, {"measurement": "pKd", "setting": "[8]", "value": "below the threshold"}, {"measurement": "pKd", "setting": "[9]", "value": "below the threshold"}, {"measurement": "pKd", "setting": "[10]", "value": "below the threshold"}, {"measurement": "pKd", "setting": "[11]", "value": "below the threshold"}, {"measurement": "pKd", "setting": "[12]", "value": "below the threshold"}, {"measurement": "pKd", "setting": "[13]", "value": "below the threshold"}, {"measurement": "pKd", "setting": "[14]", "value": "below the threshold"}, {"measurement": "pKd", "setting": "[15]", "value": 5.11}, {"measurement": "pKd", "setting": "[16]", "value": "below the threshold"}, {"measurement": "pKd", "setting": "[17]", "value": "below the threshold"}, {"measurement": "pKd", "setting": "[18]", "value": "below the threshold"}, {"measurement": "pKd", "setting": "[19]", "value": "below the threshold"}, {"measurement": "pKd", "setting": "[20]", "value": "below the threshold"}, {"measurement": "pKd", "setting": "[21]", "value": "below the threshold"}, {"measurement": "pKd", "setting": "[22]", "value": "below the threshold"}, {"measurement": "pKd", "setting": "[23]", "value": "below the threshold"}, {"measurement": "pKd", "setting": "[24]", "value": "below the threshold"}, {"measurement": "pKd", "setting": "[25]", "value": "below the threshold"}, {"measurement": "pKd", "setting": "[26]", "value": "below the threshold"}]}, {"binder": "VKQYADVEGF", "note": "[HNRNPK, P61978;P61978-2]", "values": [{"measurement": "pKd", "setting": "[1]", "value": "below the threshold"}, {"measurement": "pKd", "setting": "[2]", "value": "below the threshold"}, {"measurement": "pKd", "setting": "[3]", "value": "below the threshold"}, {"measurement": "pKd", "setting": "[4]", "value": "below the threshold"}, {"measurement": "pKd", "setting": "[5]", "value": "below the threshold"}, {"measurement": "pKd", "setting": "[6]", "value": "below the threshold"}, {"measurement": "pKd", "setting": "[7]", "value": "below the threshold"}, {"measurement": "pKd", "setting": "[8]", "value": "below the threshold"}, {"measurement": "pKd", "setting": "[9]", "value": "below the threshold"}, {"measurement": "pKd", "setting": "[10]", "value": "below the threshold"}, {"measurement": "pKd", "setting": "[11]", "value": "below the threshold"}, {"measurement": "pKd", "setting": "[12]", "value": 4.03}, {"measurement": "pKd", "setting": "[13]", "value": "below the threshold"}, {"measurement": "pKd", "setting": "[14]", "value": 3.94}, {"measurement": "pKd", "setting": "[15]", "value": "below the threshold"}, {"measurement": "pKd", "setting": "[16]", "value": "below the threshold"}, {"measurement": "pKd", "setting": "[17]", "value": "below the threshold"}, {"measurement": "pKd", "setting": "[18]", "value": "below the threshold"}, {"measurement": "pKd", "setting": "[19]", "value": "below the threshold"}, {"measurement": "pKd", "setting": "[20]", "value": "below the threshold"}, {"measurement": "pKd", "setting": "[21]", "value": "below the threshold"}, {"measurement": "pKd", "setting": "[22]", "value": "below the threshold"}, {"measurement": "pKd", "setting": "[23]", "value": "below the threshold"}, {"measurement": "pKd", "setting": "[25]", "value": "below the threshold"}, {"measurement": "pKd", "setting": "[26]", "value": "below the threshold"}]}]}
